# According to article doi:10.1101/2021.08.17.456705 (bioRxiv, 2021):
# Target: the molecule itself
# Assay: SEC + native gel or EMSA
row,Protein,stoichiometry N
1,"Cu, Zn superoxide dismutase 1 (SOD1) H46Q-G108H, de-metallated (enzyme) not shown",3
2,"Cu, Zn superoxide dismutase 1 (SOD1) F20L-H46Q, de-metallated (enzyme) not shown",3
